Assays:
Settings in all cases: both partners purified
[1] = molecular target: T1, extracellular domain of RAGE (M1-A344) (UniProt Q15109 23-344); experiment: SPR; same set-up, no MTX; equilibrium responses (Req), concentration-response curve and Lineweaver-Burk plot
T1 construct: signal peptide in the construct; receptor for advanced glycation end products (RAGE), extracellular domain, M1-A344 as printed; The results call it 'chimeric RAGE' without saying what it is fused to; the R&D Systems product with these limits is probably the human RAGE Fc chimera (surmise), in which the signal peptide would be removed on secretion; also called chimeric RAGE; receptor for advanced …

[2] = molecular target: T1, extracellular domain of RAGE (M1-A344); experiment: SPR; same set-up, Bj 0.31-10 µM injected with 1 mM MTX; equilibrium responses (Req), Lineweaver-Burk plot, noncompetitive inhibition model
[3] = molecular target: T1, extracellular domain of RAGE (M1-A344); experiment: SPR; Biacore 3000; RAGE immobilised on a CM5 chip by amine coupling up to 5000 RU; Bj 0.31-10 µM injected at 30 µl/min, 120 s association and 120 s dissociation; PBS, 25°C; no MTX; kinetic analysis by global fitting

T1 sequence (Q15109 23-344): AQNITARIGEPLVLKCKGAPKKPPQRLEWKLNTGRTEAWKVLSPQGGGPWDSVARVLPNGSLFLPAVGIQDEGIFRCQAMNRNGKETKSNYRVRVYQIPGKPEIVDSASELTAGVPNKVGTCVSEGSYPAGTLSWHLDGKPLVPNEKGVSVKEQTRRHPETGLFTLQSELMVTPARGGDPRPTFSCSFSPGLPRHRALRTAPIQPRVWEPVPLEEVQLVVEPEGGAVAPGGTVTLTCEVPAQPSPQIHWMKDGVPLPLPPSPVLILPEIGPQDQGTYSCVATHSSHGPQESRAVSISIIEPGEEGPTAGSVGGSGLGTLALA

Kd [1]: 1350 nM | Kd [2]: 1390 nM | Kd [3]: 3710 ± 1680 nM | koff [3]: 0.00052 ± 0.25 s⁻¹ | kon [3]: 150 ± 0.01 M⁻¹ s⁻¹
B1: Bj protein (amino acid residues F88-K181 of HMGB1) (domain or fragment)
chain: FKDPNAPKRPPSAFFLFCSEYRPKIKGEHPGLSIGDVAKKLGEMWNNTAADDKQPYEKKAAKLKEKYEKDIAAYRAKGKPDAAKKGVVKAEKSK
modifications: Paper numbering starts at G1 (initiator Met removed), so entry number = paper number + 1 (F88-K181 -> 89-182; D157 -> D158; Y161 -> Y162). N-terminal 6xHis tag from pTrcHis omitted; expressed in E. …

Source: paper PMC3643934, “Identification and Characterization of the Direct Interaction between Methotrexate (MTX) and High-Mobility Group Box 1 (HMGB1) Protein” (PLoS ONE, 2013)
